The record followed here is article PMC2655719 (PLoS ONE, 2009).

Conditions in all cases: both partners purified
Test [1] addresses T1, H-Ras (recombinant, guanine nucleotide-loaded) (UniProt P01112 1-189).
T1 construct: H-Ras expressed from pPROEXHTb(H-Ras); Treated with calf intestinal phosphatase, EDTA, TEV protease and GPPNHP before gel filtration; used loaded with GPPNHP or with GDP (two assays); also called H-Ras(GPPNHP); H-Ras(GDP); source: E. coli BL21(DE3), purified (Ni-NTA, gel filtration)
Description: ITC; 300 µM RGS14(RBD1.RBD2) titrated into 20 µM H-Ras loaded with GDP; 20°C; 20 mM HEPES pH 7.5, 150 mM NaCl, 1 mM MgCl2, 0.5 mM TCEP; single binding site model. (Isothermal titration calorimetry measures the heat released or taken up as one component is titrated into another.)

For test [2], the target named is T1, H-Ras (recombinant, guanine …). The test is described as follows: ITC; 300 µM RGS14(RBD1.RBD2) titrated into 20 µM H-Ras loaded with GPPNHP; 20°C; 20 mM HEPES pH 7.5, 150 mM NaCl, 1 mM MgCl2, 0.5 mM TCEP; single binding site model.
Test [3] shares this target. Description: ITC; 300 µM RGS14(RBD1.RBD2) titrated into 20 µM H-Ras loaded with GDP; 20°C; 20 mM HEPES pH 7.5, 150 mM NaCl, 1 mM MgCl2, 0.5 mM TCEP; single binding site model. The source holds these as a separate data set.
Test [4] shares this target. The test is described as follows: ITC; 300 µM RGS14(RBD1.RBD2) titrated into 20 µM H-Ras loaded with GPPNHP; 20°C; 20 mM HEPES pH 7.5, 150 mM NaCl, 1 mM MgCl2, 0.5 mM TCEP; single binding site model. The source holds these as a separate data set.

T1 sequence (P01112 whole entry): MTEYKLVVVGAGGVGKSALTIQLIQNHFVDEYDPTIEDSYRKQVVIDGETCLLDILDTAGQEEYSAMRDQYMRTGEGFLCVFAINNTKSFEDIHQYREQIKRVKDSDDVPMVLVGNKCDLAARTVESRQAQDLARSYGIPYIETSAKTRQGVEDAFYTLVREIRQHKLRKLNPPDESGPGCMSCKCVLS

B1: RGS14(RBD1.RBD2) (domain or fragment)
chain: PGKYCCVYLPDGTASLALARPGLTIRDMLAGICEKRGLSLPDIKVYLVGNEQALVLDQDCTVLADQEVRLENRITFELELTALERVVRISAKPTKRLQEALQPILEKHGLSPLEVVLHRPGEKQPLDLGKLVSSVAAQRLVLDTLPG
Broadly, the Kd is the free concentration of one partner at which half of the binding sites on the other are occupied at equilibrium, for simple one-to-one binding. Broadly, the stoichiometry N is a count of units in the complex or per binding partner. Take B1: the dissociation constant (Kd) in test [1] was more than 200 µM. Besides, the Kd in test [2] was approximately 10 µM. In test [3], the Ka turned out to be 23500 M⁻¹, the dH is -7.1 ± 0.5 kcal/M and the “stoichiometry N” value came out at 1.05 ± 0.06. In addition, in test [4], the Ka is 101000 M⁻¹, the dH was -1.81 ± 0.04 kcal/M and the “stoichiometry N” value was found to be 1.03 ± 0.02.
